These results are taken from FireProtDB (doi:10.1016/0022-2836(92)90562-x).

First the molecules themselves.
B1: Ribonuclease, P00648 (parent)
chain: MMKMEGIALKKRLSWISVCLLVLVSAAGMLFSTAAKTETSSHKAHTEAQVINTFDGVADYLQTYHKLPDNYITKSEAQALGWVASKGNLADVAPGKSIGGDIFSNREGKLPGKSGRTWREADINYTSGFRNSDRILYSSDWLIYKTTDHYQTFTKIR

Variants of B1 are the subject of the data set. Conditions: Bacillus amyloliquefaciens; pH 6.3; 25 °C; Urea; Fluorescence; MES-NaOH 450 mM; reversible: yes; structure 1BNI; whole UniProt chain shown.

Turning to MMKMEGIALKKRLSWISVCLLVLVSAAGMLFSTAAKTETSSHKAHTEAQVINTFDGVADALQTAHKLPDNYITKSEAQALGWVASKGNLADVAPGKSIGGDIFSNREGKLPGKSGRTWREADINYTSGFRNSDRILYSSDWLIYKTTDHYQTFTKIR, the “ddG of mutation (higher = less stable)” value came out at 3.96 kcal/mol, the denaturant m value was found to be 2 kcal/mol/M, the “denaturant midpoint (higher = more stable)” value (from here on “denaturant midpoint”) turned out to be 2.43 M and the unfolding free energy amounted to 4.86 kcal/mol.
In the same order, the values of MMKMEGIALKKRLSWISVCLLVLVSAAGMLFSTAAKTETSSHKAHTEAQVINTFDGVADYLQTYHKLPDNYITKSEAQALGWVASKGDLADVAPGKSIGGDIFSNREGKLPGKSGRTWREADINYTSGFRNSDRILYSSDWLIYKTTDHYQTFTKIR are 2.62 kcal/mol, 1.89 kcal/mol/M, 3.2 M and 6.2 kcal/mol.
In the same order, the values of MMKMEGIALKKRLSWISVCLLVLVSAAGMLFSTAAKTETSSHKAHTEAQVINTFDGVADYLQTYHKLPDNYITKSEAQALGWVASKGNLADAAPGKSIGGDIFSNREGKLPGKSGRTWREADINYTSGFRNSDRILYSSDWLIYKTTDHYQTFTKIR are 1.17 kcal/mol, 2.08 kcal/mol/M, 3.6 M and 7.65 kcal/mol.
Consider MMKMEGIALKKRLSWISVCLLVLVSAAGMLFSTAAKTETSSHKAHTEAQVINTFDGVADYLQTYHKLPDNYITKSEAQALGWVASKGNLADTAPGKSIGGDIFSNREGKLPGKSGRTWREADINYTSGFRNSDRILYSSDWLIYKTTDHYQTFTKIR, for which the “ddG of mutation (higher = less stable)” value stood at 2.22 kcal/mol, the denaturant m value is 1.99 kcal/mol/M, the “denaturant midpoint” value was determined as 3.3 M and the unfolding free energy stood at 6.6 kcal/mol.
In the same order, the values of MMKMEGIALKKRLSWISVCLLVLVSAAGMLFSTAAKTETSSHKAHTEAQVINTFDGTADYLQTYHKLPDNYITKSEAQALGWVASKGNLADVAPGKSIGGDIFSNREGKLPGKSGRTWREADINYTSGFRNSDRILYSSDWLIYKTTDHYQTFTKIR are 1.99 kcal/mol, 2.07 kcal/mol/M, 3.3 M and 6.83 kcal/mol.
In the same order, the values of MMKMEGIALKKRLSWISVCLLVLVSAAGMLFSTAAKTETSSHKAHTEAQVINTFDGAADYLQTYHKLPDNYITKSEAQALGWVASKGNLADVAPGKSIGGDIFSNREGKLPGKSGRTWREADINYTSGFRNSDRILYSSDWLIYKTTDHYQTFTKIR are 3.47 kcal/mol, 1.89 kcal/mol/M, 2.8 M and 5.35 kcal/mol.
In the same order, the values of MMKMEGIALKKRLSWISVCLLVLVSAAGMLFSTAAKTETSSHKAHTEAQVINTFDGVADYLQTYHKLPDAYITKSEAQALGWVASKGNLADVAPGKSIGGDIFSNREGKLPGKSGRTWREADINYTSGFRNSDRILYSSDWLIYKTTDHYQTFTKIR are 2.2 kcal/mol, 1.94 kcal/mol/M, 3.4 M and 6.62 kcal/mol.
Regarding MMKMEGIALKKRLSWISVCLLVLVSAAGMLFSTAAKTETSSHKAHTEAQVINTFDGVAAYLQTYHKLPDNYITKSEAQALGWVASKGNLADVAPGKSIGGDIFSNREGKLPGKSGRTWREADINYTSGFRNSDRILYSSDWLIYKTTDHYQTFTKIA, the “ddG of mutation (higher = less stable)” value was -0.39 kcal/mol, the denaturant m value came out at 1.93 kcal/mol/M, the “denaturant midpoint” value came to 4.78 M and the unfolding free energy stood at 9.21 kcal/mol.
In the same order, the values of MMKMEGIALKKRLSWISVCLLVLVSAAGMLFSTAAKTETSSHKAHTEAQVINTFDGVADYLQTYHKLPDNYIGKSEAQALGWVASKGNLADVAPGKSIGGDIFSNREGKLPGKSGRTWREADINYTSGFRNSDRILYSSDWLIYKTTDHYQTFTKIR are 1.01 kcal/mol, 2.03 kcal/mol/M, 3.8 M and 7.81 kcal/mol.
With MMKMEGIALKKRLSWISVCLLVLVSAAGMLFSTAAKTETSSHKAHTEAQVINTFDGVADYLQTYHKLPDNYIAKSEAQALGWVASKGNLADVAPGKSIGGDIFSNREGKLPGKSGRTWREADINYTSGFRNSDRILYSSDWLIYKTTDHYQTFTKIR, the “ddG of mutation (higher = less stable)” value came to 1.67 kcal/mol, the denaturant m value is 2 kcal/mol/M, the “denaturant midpoint” value was 3.5 M and the unfolding free energy was found to be 7.15 kcal/mol.
As for MMKMEGIALKKRLSWISVCLLVLVSAAGMLFSTAAKTETSSHKAHTEAQVINTFAGVAAYLQTYHKLPDNYITKSEAQALGWVASKGNLADVAPGKSIGGDIFSNREGKLPGKSGRTWREADINYTSGFRNSDRILYSSDWLIYKTTDHYQTFTKIR, the “ddG of mutation (higher = less stable)” value came to 1.41 kcal/mol, the denaturant m value is 1.78 kcal/mol/M, the “denaturant midpoint” value amounted to 4.16 M and the unfolding free energy stood at 7.41 kcal/mol.
In the same order, the values of MMKMEGIALKKRLSWISVCLLVLVSAAGMLFSTAAKTETSSHKAHTEAQVINTFDGVAAYLQTYHKLPDNYITKSEAQALGWVASKGNLADVAPGKSIGGDIFSNREGKLPGKSGRTWREADINYTSGFRNSDRILYSSDWLIYKTTDHYQTFTKIR are 0.39 kcal/mol, 1.91 kcal/mol/M, 4.4 M and 8.43 kcal/mol.
In the same order, the values of MMKMEGIALKKRLSWISVCLLVLVSAAGMLFSTAAKTETSSHKAHTEAQVINTFDGVADYLQTYHKLPDNYITGSEAQALGWVASKGNLADVAPGKSIGGDIFSNREGKLPGKSGRTWREADINYTSGFRNSDRILYSSDWLIYKTTDHYQTFTKIR are 0.38 kcal/mol, 1.94 kcal/mol/M, 4.3 M and 8.44 kcal/mol.
As for MMKMEGIALKKRLSWISVCLLVLVSAAGMLFSTAAKTETSSHKAHTEAQVINTFAGVADYLQTYHKLPDNYITKSEAQALGWVASKGNLADVAPGKSIGGDIFSNREGKLPGKSGRTWREADINYTSGFRNSDRILYSSDWLIYKTTDHYQTFTKIR, the “ddG of mutation (higher = less stable)” value stood at 0.85 kcal/mol, the denaturant m value came out at 1.94 kcal/mol/M, the “denaturant midpoint” value came out at 4.1 M and the unfolding free energy is 7.97 kcal/mol.
In the same order, the values of MMKMEGIALKKRLSWISVCLLVLVSAAGMLFSTAAKTETSSHKAHTEAQVINTFDGVADYLQTYHKLPDNFITKSEAQALGWVASKGNLADVAPGKSIGGDIFSNREGKLPGKSGRTWREADINYTSGFRNSDRILYSSDWLIYKTTDHYQTFTKIR are -0.09 kcal/mol, 1.95 kcal/mol/M, 4.5 M and 8.91 kcal/mol.
In the case of MMKMEGIALKKRLSWISVCLLVLVSAAGMLFSTAAKTETSSHKAHTEAQVANTFDGVADYLQTYHKLPDNYITKSEAQALGWVASKGNLADVAPGKSIGGDIFSNREGKLPGKSGRTWREADINYTSGFRNSDRILYSSDWLIYKTTDHYQTFTKIR, the “ddG of mutation (higher = less stable)” value was found to be 0.75 kcal/mol, the denaturant m value was 2.08 kcal/mol/M, the “denaturant midpoint” value stood at 3.8 M and the unfolding free energy turned out to be 8.07 kcal/mol.
